Source: patent US20160303217A1 (ENGINEERED ANTIGENS, published 2016)
Substitutions are numbered along the chain they refer to. Numbers in names are those of the source.

B1: A. suis TbpB 27-577 (amino acid 27-577) derived from strain H57, purified recombinant truncated protein (receptor)
chain: SYQDEETKKKTKEELDKLMEPTLGVEAKIPRRNRALFDKEGNRKATPDTTDELSEAQIMAIWNENIDEIPHLKELNDKTTSGLIYHSHDGKQEDKKRNLQYVRSGYVFDESYSEIVKNKNGVPYIFKNGIDGYIYYLGTSPSKELPKGNKVTYKGTWDFTSDVKTSYELSGFSDAGNGKNVAATSISDNVNRDHKVGEKLGDNEVKGVAHSSEFAVDFDNKKLTGSLYRNGYINRNKAQEVTKRYSIEADITGNRFTGKAKAEKAGDPIFTDSNYLEGGFYGPKAEEMAGKFFTNNKSLFAVFAAKSENGETTTERIIDATKIDLTQFNAKELNNFGDASVLIIDGQKIDLAGVNFKNSKTVEINGKTMVAVACCSNLEYMKFGQLWQKEGKQQVKDNSLFLQGERTATDKMPAGGNYKYVGTWDALVSKGTNWIAEADNNRESGYRTEFDVNFSDKKVNGKLFDKGGVNPVFTVDATINGNGFIGSAKTSDSGFALDAGSSQHGNAVFSDIKVNGGFYGPTAGELGGQFHHKSDNGSVGAVFGA
notes: also called AsH57 TbpB; TbpB from Actinobacillus suis
B2: F171A mutant of ApH49 TbpB 20-528 (receptor)
chain: GVSKEEYKDVETAKKEKEQLGELMEPALGYVVKVPVSSFENKKVDISDIEVITNGNLDDVPYKANSSKYNYPDIKTKDSSLQYVRSGYVIDGEHSGSNEKGYVYYKGNSPAKELPVNQLLTYTGSWDFTSNANLNNEEGRPNYLNDDYYTKAIGKRVGLVSGDAKPAKHKYTSQFEVDFATKKMTGKLSDKEKTIYTVNADIRGNRFTGAATASDKNKGKGESYNFFSADSQSLEGGFYGPKAEEMAGKFVANDKSLFAVFSAKHNGSNVDTVRIIDASKIDLTNFSISELNNFGDASVLIIDGKKIKLAGSGFTNKHTIEINGKTMVAVACCSNLEYMKFGQLWQQAEGGKPENNSLFLQGERTATDKMPKGGNYKYIGTWDAQVSKENNWVATADDDRKAGYRTEFDVDFGNKNLSGKLFDKNGVNPVFTVDAKIDGNGFTGKAKTSDAGFALDSGSSRYENVKFNDVAVSGGFYGPTAAELGGQFHHKSENGSVGAVFG
notes: also called F171A mutation in the TbpB from A. pleuropneumoniae strain H49
B3: Y174A mutant of A. pleuropneumoniae TbpB 26-528 derived from strain H87 (receptor)
chain: VNYTDEETQKRKKEELDKLMEPALGYVTKIPVNIPSVRKTEISEIDTVTDESLSLVPNEDKLRTIANENYGSVVTKSGSNTMNFVRSGYTIDVVHYGLRDKGYVYYKGVHPSKELPKGNIIVYQGEWDFTSNADLDAKRPNYNPEFNGAGAGQRVGVTSADAKERTYISKFNIDFSNKKLNGQLLTKTKENQEKLRYTVEANISGNRFRGKATATDKTDPILGKDSEHLEGGLYGPKSEELAGKFVAHDKSLFAVFSGKRGNDVLETVKIIDASKIDLTTFESSELNNFGNANVLIIDGQKIDLAGADFKNRKTVDINGKTMVAIACCSNLEYMKFGQLWQKEGEQTKDNSLFLQGERTATDKIPVGGNYKYVGTWDALVSKGTNWVAEADNNRESGYRSEFDVNFGDKKVSGKLFDKGGIVPVFMINADIKGNGFTGTANTTDTGFALDSGSSQHGNAVFSDIKVNGGFYGPTAGELGGQFHHKSDNGSVGAVFG
B4: Y167A mutant of H. parasuis TbpB 27-577 derived from the Nagasaki strain Hp5 (receptor)
chain: CSGGKGSFDLEDVQPNKTTGVSKEEYKDVETDKKVKEQLGELMEPALGYVVKVPVSQSGVKRTEISNPEAITDEDLNKIPNYEIIKGVAYPNYGELVDKTAAETMKYVRSGYVIDVYHSGTRDKGYVFYKGITPSKELPQGPALTYQGEWDFTSDANLNNEEGRPTALNDDYYTTWIGKRAGLVSGDAKPSKHKYTSQFKVDFATKKMTGKLSDKEKTIYTVNADIRGNRFTGSATASDKDKGKGASYNFFSVDSQSLEGGFYGPKAEEMAGKFVADDKSLFAVFSAKHNASNVNTVRIIDASKIDLTNFSISELTNFGDASVLIIDGKKMELAGSEFTNKHTIDINGKKMVAVACCSNLEYMKFGQLWQQTEGEKQVKDNSLFLQGERTATDKMPKDGNYKYIGTWDAQVSKENNYWVATADDDRKAGYRTEFDVDFGSKNLSGKLFDKNGVNPVFTVNAKIDGNGFTGEAKTSDAGFVLDPGSLRHDNVKFSDVAVSGGFYGPTAAELGGQFRYQSDNGSVGVGAVFGAKQQVKK
notes: also called Y167A TbpB; Y167A mutant TbpB
B5: W176A mutant of H. parasuis TbpB 27-577 derived from the Nagasaki strain Hp5 (receptor)
chain: B4 chain with Y93A, A167Y, W176A
notes: also called W176A mutation in the TbpB from H. parasuis strain HP5
B6: engineered (loop-reduced) TbpB N-lobe from Actinobacillus pleuropneumoniae strain H49, fusion protein with N-terminal maltose binding protein and polyhistidine … (receptor)
chain: GSGVSKEEYKDVETAKKEKEQLGELGELMEPALGYVVKVPVSAGKKVDISDIEVITNGNLDDVPYKANSSKYNYPDIKTKDSSLQYVRSGYVISPDGGYVYYKGNSPAKELPVNQLLTYTGSWDFTSNANLNAARPAGAGKRVGLVSGDAKERKYTSQFEVDFATKKMTGKLSDKEKTIYTVNADIRGNRFTGAATASDKNDPILSADSQSLEGGFYGPKAEEMAGKFVANDKSLFAVFSAKHNGSNV
notes: also called engineered TbpB N-lobe H49; modified N-lobe; not shown: N-terminal polyhistidine region of the custom expression vector; TEV (tobacco etch virus) cleavage site
B7: engineered (loop-reduced) TbpB N-lobe from Actinobacillus pleuropneumoniae strain H87, fusion protein with N-terminal maltose binding protein and polyhistidine … (receptor)
chain: GSKLMEPALGYVTKIPVGPGSEISEIDTVTDESVSGAPGVVNSGYTIDVVHYGLRDKGSVSYKGVHPSKELPKGNIIVYQGEWDFTSNAGAAGRVGVTSADAKERTYISKFNIDFSNKKLNGQLLTKTKENQEKLRYTVEANISGNRFRGKATATDKTDPILGKDSEHLEGGLYGPKSEELAGKFVAHDKSLFAVFSGKRGNDVL
notes: also called engineered TbpB N-lobe H87; not shown: N-terminal polyhistidine region of the custom expression vector; TEV (tobacco etch virus) cleavage site
B8: native TbpB N-lobe from Actinobacillus pleuropneumoniae strain H49, fusion protein with N-terminal maltose binding protein and polyhistidine tag (receptor)
chain: CSGGKGSFDLEDVRPNKTTGVSKEEYKDVETAKKEKEQLGELMEPALGYVVKVPVSSFENKKVDISDIEVITNGNLDDVPYKANSSKYNYPDIKTKDSSLQYVRSGYVIDGEHSGSNEKGYVYYKGNSPAKELPVNQLLTYTGSWDFTSNANLNNEEGRPNYLNDDYYTKFIGKRVGLVSGDAKPAKHKYTSQFEVDFATKKMTGKLSDKEKTIYTVNADIRGNRFTGAATASDKNKGKGESYNFFSADSQSLEGGFYGPKAEEMAGKFVANDKSLFAVF
notes: also called Mbp-TbpB N-lobe; native h49 TbpB N-lobe; not shown: N-terminal polyhistidine region of the custom expression vector; TEV (tobacco etch virus) cleavage site

Columns and labels:
porcine transferrin [1] = target: T1, porcine transferrin (porcine, UniProt P09571 1-696); experiment: isothermal calorimetry, surface plasmon resonance or biolayer interferometry
T1 construct: also called pTf; porcine Tf

porcine transferrin [2] = target: T1, porcine transferrin; experiment: affinity capture from cell lysate on porcine Tf-Sepharose, SDS-PAGE
porcine transferrin [3] = target: T1, porcine transferrin; experiment: solid-phase (dot) binding assay with HRP-conjugated porcine transferrin; also capture on porcine Tf-Sepharose

T1 sequence (P09571 whole entry): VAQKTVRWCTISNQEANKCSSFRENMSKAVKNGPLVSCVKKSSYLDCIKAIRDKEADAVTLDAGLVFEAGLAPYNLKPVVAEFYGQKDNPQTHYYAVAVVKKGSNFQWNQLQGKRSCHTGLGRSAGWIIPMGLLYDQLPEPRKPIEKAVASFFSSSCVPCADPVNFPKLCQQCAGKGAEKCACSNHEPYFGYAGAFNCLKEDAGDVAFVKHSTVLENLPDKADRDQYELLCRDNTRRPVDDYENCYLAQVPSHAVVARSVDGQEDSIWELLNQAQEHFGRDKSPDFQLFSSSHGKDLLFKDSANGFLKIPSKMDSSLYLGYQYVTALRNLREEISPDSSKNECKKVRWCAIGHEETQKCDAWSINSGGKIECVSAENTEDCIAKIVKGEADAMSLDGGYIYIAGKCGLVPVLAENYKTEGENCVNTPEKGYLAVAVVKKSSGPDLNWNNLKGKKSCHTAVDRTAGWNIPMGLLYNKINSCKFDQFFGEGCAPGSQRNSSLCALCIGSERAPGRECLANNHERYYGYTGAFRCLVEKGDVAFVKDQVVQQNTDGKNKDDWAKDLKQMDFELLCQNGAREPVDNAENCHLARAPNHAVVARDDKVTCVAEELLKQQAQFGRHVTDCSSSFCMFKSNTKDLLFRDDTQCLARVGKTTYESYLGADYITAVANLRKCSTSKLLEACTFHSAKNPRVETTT

Binder	fold increase in the affinity constant (Kd) against the native TbpB (porcine transferrin [1])	other results
B1	–	Kd (porcine transferrin [1]): ~120 nM
B2	100 fold	–
B3	100 fold	–
B4	100 fold	–
B5	100 fold	–
B6	–	binding result (porcine transferrin [2]): no binding
B7	–	binding result (porcine transferrin [2]): no binding
B8	–	binding result (porcine transferrin [3]): binds
